Assay results reported in patent publication US12104181B2, “Compositions and methods for treating viral infections targeting TRIM7” (THE BOARD OF REGENTS OF THE UNIVERSITY OF TEXAS SYSTEM, priority 2021, dated 2024).
Several values for one entry are separate records, joined by “and”; a condition that tells them apart may be missing. Identical values can stand only once.

B1: RNF25: human RING type E3 ligase expressed from lentiviral vector; listed twice (protein, UniProt Q96BH1 1-459, looked up)
E3 ubiquitin-protein ligase …: MAASASAAAGEEDWVLPSEVEVLESIYLDELQVIKGNGRTSPWEIYITLHPATAEDQDSQYVCFTLVLQVPAEYPHEVPQISIRNPRGLSDEQIHTILQVLGHVAKAGLGTAMLYELIEKGKEILTDNNIPHGQCVICLYGFQEKEAFTKTPCYHYFHCHCLARYIQHMEQELKAQGQEQEQERQHATTKQKAVGVQCPVCREPLVYDLASLKAAPEPQQPMELYQPSAESLRQQEERKRLYQRQQERGGIIDLEAERNRYFISLQQPPAPAEPESAVDVSKGSQPPSTLAAELSTSPAVQSTLPPPLPVATQHICEKIPGTRSNQQRLGETQKAMLDPPKPSRGPWRQPERRHPKGGECHAPKGTRDTQELPPPEGPLKEPMDLKPEPHSQGVEGPPQEKGPGSWQGPPPRRTRDCVRWERSKGRTPGSSYPRLPRGQGAYRPGTRRESLGLESKDGS
modifications: lentiviral expression
B2: TRIM68: human RING type E3 ligase expressed from lentiviral vector (protein, UniProt Q6AZZ1 1-485, looked up)
E3 ubiquitin-protein ligase …: MDPTALVEAIVEEVACPICMTFLREPMSIDCGHSFCHSCLSGLWEIPGESQNWGYTCPLCRAPVQPRNLRPNWQLANVVEKVRLLRLHPGMGLKGDLCERHGEKLKMFCKEDVLIMCEACSQSPEHEAHSVVPMEDVAWEYKWELHEALEHLKKEQEEAWKLEVGERKRTATWKIQVETRKQSIVWEFEKYQRLLEKKQPPHRQLGAEVAAALASLQREAAETMQKLELNHSELIQQSQVLWRMIAELKERSQRPVRWMLQDIQEVLNRSKSWSLQQPEPISLELKTDCRVLGLREILKTYAADVRLDPDTAYSRLIVSEDRKRVHYGDTNQKLPDNPERFYRYNIVLGSQCISSGRHYWEVEVGDRSEWGLGVCKQNVDRKEVVYLSPHYGFWVIRLRKGNEYRAGTDEYPILSLPVPPRRVGIFVDYEAHDISFYNVTDCGSHIFTFPRYPFPGRLLPYFSPCYSIGTNNTAPLAICSLDGED
B3: TRIM72: human RING type E3 ligase expressed from lentiviral vector; listed twice (protein, UniProt Q6ZMU5 1-477, looked up)
Tripartite motif-containing …: MSAAPGLLHQELSCPLCLQLFDAPVTAECGHSFCRACLGRVAGEPAADGTVLCPCCQAPTRPQALSTNLQLARLVEGLAQVPQGHCEEHLDPLSIYCEQDRALVCGVCASLGSHRGHRLLPAAEAHARLKTQLPQQKLQLQEACMRKEKSVAVLEHQLVEVEETVRQFRGAVGEQLGKMRVFLAALEGSLDREAERVRGEAGVALRRELGSLNSYLEQLRQMEKVLEEVADKPQTEFLMKYCLVTSRLQKILAESPPPARLDIQLPIISDDFKFQVWRKMFRALMPALEELTFDPSSAHPSLVVSSSGRRVECSEQKAPPAGEDPRQFDKAVAVVAHQQLSEGEHYWEVDVGDKPRWALGVIAAEAPRRGRLHAVPSQGLWLLGLREGKILEAHVEAKEPRALRSPERRPTRIGLYLSFGDGVLSFYDASDADALVPLFAFHERLPRPVYPFFDVCWHDKGKNAQPLLLVGPEGAEA
B4: TRIM65: human RING type E3 ligase expressed from lentiviral vector (protein, UniProt Q6PJ69 2-517, looked up)
E3 ubiquitin-protein ligase …: AAQLLEEKLTCAICLGLYQDPVTLPCGHNFCGACIRDWWDRCGKACPECREPFPDGAELRRNVALSGVLEVVRAGPARDPGPDPGPGPDPAARCPRHGRPLELFCRTEGRCVCSVCTVRECRLHERALLDAERLKREAQLRASLEVTQQQATQAEGQLLELRKQSSQIQNSACILASWVSGKFSSLLQALEIQHTTALRSIEVAKTQALAQARDEEQRLRVHLEAVARHGCRIRELLEQVDEQTFLQESQLLQPPGPLGPLTPLQWDEDQQLGDLKQLLSRLCGLLLEEGSHPGAPAKPVDLAPVEAPGPLAPVPSTVCPLRRKLWQNYRNLTFDPVSANRHFYLSRQDQQVKHCRQSRGPGGPGSFELWQVQCAQSFQAGHHYWEVRASDHSVTLGVSYPQLPRCRLGPHTDNIGRGPCSWGLCVQEDSLQAWHNGEAQRLPGVSGRLLGMDLDLASGCLTFYSLEPQTQPLYTFHALFNQPLTPVFWLLEGRTLTLCHQPGAVFPLGPQEEVLS
B5: TRIM75: human RING type E3 ligase expressed from lentiviral vector; listed twice (protein, UniProt A6NK02 1-468, looked up)
Tripartite motif-containing …: MAVAAALTGLQAEAKCSICLDYLSDPVTIECGHNFCRSCIQQSWLDLQELFPCPVCRHQCQEGHFRSNTQLGRMIEIAKLLQSTKSNKRKQEETTLCEKHNQPLSVFCKEDLMVLCPLCTQPPDHQGHHVRPIEKAAIHYRKRFCSYIQPLKKQLADLQKLISTQSKKPLELREMVENQRQELSSEFEHLNQFLDREQQAVLSRLAEEEKDNQQKLSANITAFSNYSATLKSQLSKVVELSELSELELLSQIKIFYESENESSPSIFSIHLKRDGCSFPPQYSALQRIIKKFKVEIILDPETAHPNLIVSEDKKRVRFTKRKQKVPGFPKRFTVKPVVLGFPYFHSGRHFWEIEVGDKSEWAIGICKDSLPTKARRPSSAQQECWRIELQDDGYHAPGAFPTPLLLEVKARAIGIFLDYEMGEISFYNMAEKSHICTFTDTFTGPLRPYFYVGPDSQPLRICTGTVCE
B6: RNF144B: human RING type E3 ligase expressed from lentiviral vector (protein, UniProt Q7Z419 1-303, looked up)
E3 ubiquitin-protein ligase …: MGSAGRLHYLAMTAENPTPGDLAPAPLITCKLCLCEQSLDKMTTLQECQCIFCTACLKQYMQLAIREGCGSPITCPDMVCLNHGTLQEAEIACLVPVDQFQLYQRLKFEREVHLDPYRTWCPVADCQTVCPVASSDPGQPVLVECPSCHLKFCSCCKDAWHAEVSCRDSQPIVLPTEHRALFGTDAEAPIKQCPVCRVYIERNEGCAQMMCKNCKHTFCWYCLQNLDNDIFLRHYDKGPCRNKLGHSRASVMWNRTQVVGILVGLGIIALVTSPLLLLASPCIICCVCKSCRGKKKKHDPSTT
modifications: lentiviral expression
notes: human RING type E3 ligase expressed from lentiviral vector
B7: RNF212: human RING type E3 ligase expressed from lentiviral vector (protein, UniProt Q495C1 1-297, looked up)
Probable E3 SUMO-protein …: MANWVFCNRCFQPPHRTSCFSLTNCGHVYCDACLGKGKKNECLICKAPCRTVLLSKHTDADIQAFFMSIDSLCKKYSRETSQILEFQEKHRKRLLAFYREKISRLEESLRKSVLQIEQLQSMRSSQQTAFSTIKSSVSTKPHGCLLPPHSSAPDRLESMEVDLSPSPIRKSEIAAGPARISMISPPQDGRMGPHLTASFCFIPWLTLSKPPVPGECVISRGSPCFCIDVCPHWLLLLAFSSGRHGELTNSKTLPIYAEVQRAVLFPFQQAEGTLDTFRTPAVSVVFPLCQFERKKSF
B8: TRIM74: human RING type E3 ligase expressed from lentiviral vector (protein, UniProt Q86UV6 1-250, looked up)
Tripartite motif-containing …: MAWQVSLLELEDWLQCPICLEVFKESLMLQCGHSYCKGCLVSLSYHLDTKVRCPMCWQVVDGSSSLPNVSLAWVIEALRLPGDPEPKVCVHHRNPLSLFCEKDQELICGLCGLLGSHQHHPVTPVSTVCSRMKEELAALFSELKQEQKKVDELIAKLVKNRTRIVNESDVFSWVIRREFQELRHPVDEEKARCLEGIGGHTRGLVASLDMQLEQAQGTRERLAQAECVLEQFGNEDHHEFIWKFHSMASR
modifications: lentiviral expression
notes: as for B6
B9: RNF122: human RING type E3 ligase expressed from lentiviral vector (protein, UniProt Q9H9V4 1-155, looked up)
RING finger protein 122: MHPFQWCNGCFCGLGLVSTNKSCSMPPISFQDLPLNIYMVIFGTGIFVFMLSLIFCCYFISKLRNQAQSERYGYKEVVLKGDAKKLQLYGQTCAVCLEDFKGKDELGVLPCQHAFHRKCLVKWLEVRCVCPMCNKPIASPSEATQNIGILLDELV
B10: TRIML1: human RING type E3 ligase expressed from lentiviral vector (protein, UniProt Q8N9V2 1-468, looked up)
Probable E3 ubiquitin-protein …: MSTADLMENLREELTCFICLDYFSSPVTTECGHSFCLVCLLRSWEEHNTPLSCPECWRTLEGPHFQSNERLGRLASIARQLRSQVLQSEDEQGSYGRMPTTAKALSDDEQGGSAFVAQSHGANRVHLSSEAEEHHREKLQEILNLLRVRRKEAQAVLTHEKERVKLCQEETKTCKQVVVSEYMKMHQFLKEEEQLQLQLLEQEEKENMRKLRNNEIKLTQQIRSLSKMIAQIESSSQSSAFESLEEVRGALERSEPLLLQCPEATTTELSLCRITGMKEMLRKFSTEITLDPATANAYLVLSEDLKSVKYGGSRQQLPDNPERFDQSATVLGTQIFTSGRHYWEVEVGNKTEWEVGICKDSVSRKGNLPKPPGDLFSLIGLKIGDDYSLWVSSPLKGQHVREPVCKVGVFLDYESGHIAFYNGTDESLIYSFPQASFQEALRPIFSPCLPNEGTNTDPLTICSLNSHV
B11: TRIM67: human RING type E3 ligase expressed from lentiviral vector (protein, UniProt Q6ZTA4 1-783, looked up)
Tripartite motif-containing …: MEEELKCPVCGSLFREPIILPCSHNVCLPCARTIAVQTPDGEQHLPQPLLLSRGSGLQAGAAAAASLEHDAAAGPACGGAGGSAAGGLGGGAGGGGDHADKLSLYSETDSGYGSYTPSLKSPNGVRVLPMVPAPPGSSAAAARGAACSSLSSSSSSITCPQCHRSASLDHRGLRGFQRNRLLEAIVQRYQQGRGAVPGTSAAAAVAICQLCDRTPPEPAATLCEQCDVLYCSACQLKCHPSRGPFAKHRLVQPPPPPPPPAEAASGPTGTAQGAPSGGGGCKSPGGAGAGATGGSTARKFPTCPEHEMENYSMYCVSCRTPVCYLCLEEGRHAKHEVKPLGAMWKQHKAQLSQALNGVSDKAKEAKEFLVQLKNILQQIQENGLDYEACLVAQCDALVDALTRQKAKLLTKVTKEREHKLKMVWDQINHCTLKLRQSTGLMEYCLEVIKENDPSGFLQISDALIKRVQVSQEQWVKGALEPKVSAEFDLTLDSEPLLQAIHQLDFIQMKCRVPPVPLLQLEKCCTRNNSVTLAWRMPPFTHSPVDGYILELDDGAGGQFREVYVGKETLCTIDGLHFNSTYNARVKAFNSSGVGPYSKTVVLQTSDVAWFTFDPNSGHRDIILSNDNQTATCSSYDDRVVLGTAAFSKGVHYWELHVDRYDNHPDPAFGVARASVVKDMMLGKDDKAWAMYVDNNRSWFMHCNSHTNRTEGGVCKGATVGVLLDLNKHTLTFFINGQQQGPTAFSHVDGVFMPALSLNRNVQVTLHTGLEVPTNLGRPKLSGN

System: coxsackievirus B3 (CVB3-GFP)
Type: cell-based
Conditions: HeLa cells, replicate R1; for Percent Infected R1: GFP-positive cells within RFP-positive gate

Molecule	Percent Infected R1	Z score R1
B1	90.6% and 89.2%	0.03 and 0.01
B2	62%	−0.338
B3	60.2% and 88.1%	−0.361 and −0.01
B4	56.8%	−0.404
B5	66.8% and 89.7%	−0.277 and 0.01
B6	93.9%	0.07
B7	91.1%	0.03
B8	71.6%	−0.216
B9	90.3%	0.02
B10	77.6%	−0.14
B11	58.9%	−0.378
